The chains are these.
B1: glmS ribozyme (parent)
chain: AUAAAAGCGCCAGAACUACAGAAAUGUAGUUGACGAGGAGGAGGUUUAUCGAAUUUUCGGCGGAUGCCUCCAAA

± gives the standard error. Fewer inactive variants are shown than the library holds.

What all share (details): with glucosamine-6-phosphate
Variants of B1 are the subject of data set [1]. In words: self-cleavage kobs at 160 uM GlcN6P; higher = faster cleavage; RNA array. A digest of the protocol: (§1)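 Glucosamine-6-phosphate (40 μM to 10 mM) in HEPES/KCl/Mg(OAc)2 buffer was flowed over sequenced MiSeq chips, and tiles were imaged over ~14 h. Barcoded ribozyme variants there had been transcribed in situ by E. coli RNA polymerase and were tracked through a hybridised Cy3 probe at 37 °C. One- or two-exponential decay fits to per-tile medians, normalised to baseline and to non-cleaving reference variants, gave kobs. kcat and KM came from weighted Michaelis–Menten fits across concentrations.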

In data set [2] the parent is B1. In words: self-cleavage kobs at 640 uM GlcN6P; higher = faster cleavage; RNA array. The procedure, abridged:
as §1

The variants in data set [3] derive from B1. Kind of data set: self-cleavage kobs at 2500 uM GlcN6P; higher = faster cleavage; RNA array. The procedure, abridged:
as §1

In data set [4] the parent is B1. Kind of data set: self-cleavage kobs at 40 uM GlcN6P; higher = faster cleavage; RNA array. The procedure, abridged:
as §1

Data set [5] covers variants of B1. Kind of data set: self-cleavage kobs at 10000 uM GlcN6P; higher = faster cleavage; RNA array. A digest of the protocol: as §1

With G43C U55G, the “self-cleavage kobs at 160 uM GlcN6P” value in data set [1] is less than 1e-05 s⁻¹.

For C34U A36G, the “self-cleavage kobs at 160 uM GlcN6P” value in data set [1] was less than 1e-05 s⁻¹. In addition, in data set [2], the “self-cleavage kobs at 640 uM GlcN6P” value is less than 1e-05 s⁻¹. In addition, the “self-cleavage kobs at 2500 uM GlcN6P” value in data set [3] was less than 1e-05 s⁻¹.

With C16U A42U C67G, the “self-cleavage kobs at 160 uM GlcN6P” value in data set [1] stood at 6.07e-05 ± 1.8e-05 s⁻¹. Moreover, the “self-cleavage kobs at 640 uM GlcN6P” value in data set [2] was determined as 0.000203 ± 6.8e-05 s⁻¹. In data set [3], the “self-cleavage kobs at 2500 uM GlcN6P” value came out at 0.000631 ± 0.00021 s⁻¹.

On to G13U A15U G44A, for which, in data set [1], the “self-cleavage kobs at 160 uM GlcN6P” value is less than 1e-05 s⁻¹. The “self-cleavage kobs at 640 uM GlcN6P” value in data set [2] is less than 1e-05 s⁻¹. The “self-cleavage kobs at 2500 uM GlcN6P” value in data set [3] was less than 1e-05 s⁻¹.

As for C16U A33U G38A G40A, the “self-cleavage kobs at 40 uM GlcN6P” value in data set [4] was less than 1e-05 s⁻¹. The “self-cleavage kobs at 10000 uM GlcN6P” value in data set [5] is less than 1e-05 s⁻¹.

Regarding A12G A42U G59U G63C C71U, the “self-cleavage kobs at 160 uM GlcN6P” value in data set [1] was less than 1e-05 s⁻¹. In addition, the “self-cleavage kobs at 640 uM GlcN6P” value in data set [2] was less than 1e-05 s⁻¹.

For the variant C16U A39C A48U, the “self-cleavage kobs at 160 uM GlcN6P” value in data set [1] was less than 1e-05 s⁻¹.

Turning to C10U U56A G62A U65A U69G, the “self-cleavage kobs at 160 uM GlcN6P” value in data set [1] turned out to be 3.94e-05 ± 1.6e-05 s⁻¹.

As to C8G U46C A53C, the “self-cleavage kobs at 160 uM GlcN6P” value in data set [1] is less than 1e-05 s⁻¹. Besides, the “self-cleavage kobs at 2500 uM GlcN6P” value in data set [3] is less than 1e-05 s⁻¹.

As to C10G G38U G41U U49C C50U C70A, in data set [1], the “self-cleavage kobs at 160 uM GlcN6P” value is less than 1e-05 s⁻¹. Also, the “self-cleavage kobs at 10000 uM GlcN6P” value in data set [5] is less than 1e-05 s⁻¹.

For the variant A15G G29U U54C, the “self-cleavage kobs at 40 uM GlcN6P” value in data set [4] worked out at 2.83e-05 ± 1.3e-05 s⁻¹. For the same variant, in data set [2], the “self-cleavage kobs at 640 uM GlcN6P” value is 0.000321 ± 0.0001 s⁻¹. Moreover, in data set [3], the “self-cleavage kobs at 2500 uM GlcN6P” value is 0.000796 ± 0.00016 s⁻¹.

Consider G40C G63A, for which, in data set [1], the “self-cleavage kobs at 160 uM GlcN6P” value was less than 1e-05 s⁻¹. The “self-cleavage kobs at 640 uM GlcN6P” value in data set [2] is less than 1e-05 s⁻¹. The “self-cleavage kobs at 2500 uM GlcN6P” value in data set [3] is less than 1e-05 s⁻¹. Besides, in data set [5], the “self-cleavage kobs at 10000 uM GlcN6P” value was less than 1e-05 s⁻¹.

In the case of A6C C8G G66C, the “self-cleavage kobs at 160 uM GlcN6P” value in data set [1] is less than 1e-05 s⁻¹. Further, in data set [2], the “self-cleavage kobs at 640 uM GlcN6P” value is less than 1e-05 s⁻¹.

As to A6U G35C U54A, in data set [4], the “self-cleavage kobs at 40 uM GlcN6P” value is less than 1e-05 s⁻¹.

On to A52C U54C, for which, in data set [1], the “self-cleavage kobs at 160 uM GlcN6P” value is less than 1e-05 s⁻¹.

Turning to A6U C8A C16A, the “self-cleavage kobs at 160 uM GlcN6P” value in data set [1] was less than 1e-05 s⁻¹.

With G9U G40C G51A, the “self-cleavage kobs at 160 uM GlcN6P” value in data set [1] is less than 1e-05 s⁻¹. Further, the “self-cleavage kobs at 640 uM GlcN6P” value in data set [2] was less than 1e-05 s⁻¹. Further, the “self-cleavage kobs at 2500 uM GlcN6P” value in data set [3] is less than 1e-05 s⁻¹.

For the variant G9A C16G G63A A64G, the “self-cleavage kobs at 40 uM GlcN6P” value in data set [4] was less than 1e-05 s⁻¹. Further, the “self-cleavage kobs at 160 uM GlcN6P” value in data set [1] is less than 1e-05 s⁻¹. Also, the “self-cleavage kobs at 640 uM GlcN6P” value in data set [2] is less than 1e-05 s⁻¹. Besides, the “self-cleavage kobs at 2500 uM GlcN6P” value in data set [3] was less than 1e-05 s⁻¹.

Regarding G13A C16G A64U, in data set [4], the “self-cleavage kobs at 40 uM GlcN6P” value is less than 1e-05 s⁻¹.

For the variant U47A G63C, the “self-cleavage kobs at 160 uM GlcN6P” value in data set [1] was less than 1e-05 s⁻¹. For the same variant, the “self-cleavage kobs at 640 uM GlcN6P” value in data set [2] was less than 1e-05 s⁻¹. For the same variant, in data set [3], the “self-cleavage kobs at 2500 uM GlcN6P” value was less than 1e-05 s⁻¹.

A36G G41C G43C A48G: the “self-cleavage kobs at 40 uM GlcN6P” value in data set [4] was less than 1e-05 s⁻¹. Also, the “self-cleavage kobs at 2500 uM GlcN6P” value in data set [3] was less than 1e-05 s⁻¹. For the same variant, the “self-cleavage kobs at 10000 uM GlcN6P” value in data set [5] was less than 1e-05 s⁻¹.

With C10A A14U A52U C70G, in data set [1], the “self-cleavage kobs at 160 uM GlcN6P” value worked out at 0.00038 ± 0.00011 s⁻¹. In addition, the “self-cleavage kobs at 640 uM GlcN6P” value in data set [2] amounted to 0.000294 ± 7.4e-05 s⁻¹. Also, the “self-cleavage kobs at 2500 uM GlcN6P” value in data set [3] was 8.93e-05 ± 3.8e-05 s⁻¹.

For the variant C11G A15C A33C C34G U55C, the “self-cleavage kobs at 160 uM GlcN6P” value in data set [1] was less than 1e-05 s⁻¹. Moreover, in data set [2], the “self-cleavage kobs at 640 uM GlcN6P” value is less than 1e-05 s⁻¹.

As for C34G U46A, in data set [1], the “self-cleavage kobs at 160 uM GlcN6P” value was less than 1e-05 s⁻¹. The “self-cleavage kobs at 2500 uM GlcN6P” value in data set [3] is less than 1e-05 s⁻¹. Besides, the “self-cleavage kobs at 10000 uM GlcN6P” value in data set [5] was less than 1e-05 s⁻¹.

Consider G7U G35A G37C U46G U47A C70G, for which the “self-cleavage kobs at 160 uM GlcN6P” value in data set [1] was less than 1e-05 s⁻¹. In data set [2], the “self-cleavage kobs at 640 uM GlcN6P” value was less than 1e-05 s⁻¹. The “self-cleavage kobs at 2500 uM GlcN6P” value in data set [3] was less than 1e-05 s⁻¹.

Regarding U56C C67G, in data set [1], the “self-cleavage kobs at 160 uM GlcN6P” value is less than 1e-05 s⁻¹. The “self-cleavage kobs at 640 uM GlcN6P” value in data set [2] was less than 1e-05 s⁻¹. Further, the “self-cleavage kobs at 10000 uM GlcN6P” value in data set [5] was less than 1e-05 s⁻¹.

Consider C16U G29C C67A, for which the “self-cleavage kobs at 160 uM GlcN6P” value in data set [1] was found to be 0.00011 ± 2.1e-05 s⁻¹. In addition, the “self-cleavage kobs at 640 uM GlcN6P” value in data set [2] is 0.000258 ± 4.5e-05 s⁻¹. In data set [3], the “self-cleavage kobs at 2500 uM GlcN6P” value came to 0.00106 ± 0.00017 s⁻¹.

The values are drawn from the supplement of paper PMC7125110.
